{
  "source": "patent US20070243184A1",
  "about": "“PROPHYLAXIS AND TREATMENT OF ENTEROCOLITIS ASSOCIATED WITH ANTI-CTLA-4 ANTIBODY THERAPY” (priority 2005, published 2007)",
  "key": {"[1]": {"settings": "including hypothalamic-pituitary suppression; cited from earlier work"}, "patients [2]": {"system": "patients", "test": "Adverse events in patients treated with MDX-010 in clinical protocols", "assay_type": "in vivo", "source_text": "As noted above, these adverse events are an expected consequence of inhibiting CTLA-4 function. Immune-mediated events are adverse events associated with drug exposure and consistent with an immune-based mechanism of action. In terms of organ system involvement, these events have primarily involved the GI tract (diarrhea and colitis) or the skin (rash and pruritis). Diarrhea due to treatment with MDX-010 ranges from mild to very severe and may become life-threatening. Most cases of diarrhea and colitis have resolved with symptomatic treatment or corticosteroid intervention without known sequelae. Upper GI tract involvement including ileitis, duodenitis, and esophagitis has been observed.\nTo date, 6 patients in total have experienced gastrointestinal perforation or bleeding requiring colectomy following treatment with MDX-010. Two of these patients had melanoma (representing 0.6% of all patients with melanoma enrolled in MDX-010 related protocols), while four patients had renal cell carcinoma (representing 7% of all patients with renal cell carcinoma enrolled in MDX-010 related protocols). One of the patients with melanoma also received concomitant dacarbazine. After developing diarrhea, they initially appeared to improve on intravenous steroids, but their symptoms worsened after they were tapered off the steroids, and stool cultures were positive for Clostridium difficile, requiring aggressive medical treatment. The patient also developed laboratory evidence of disseminated intravascular coagulopathy (DIC), and required plasma and platelet transfusions. […] The patient's post-operative course was complicated by depression and malnutrition without evidence of systemic vasculitis. The patient developed pneumonia and subsequently died.\nIn the renal study (MDX010-011), one patient had GI bleeding, which was treated with a colectomy. The bleeding developed after a single dose of MDX-010. The other 3 events in the MDX010-011 study occurred after the patients received 4 to 6 doses of MDX-010. One patient with a bowel perforation was successfully treated with a colectomy and an ostomy. Subsequently, the bowel was re-functionalized. The patient was taken off steroids and has maintained a partial response to their malignancy. […] The diagnosis of colitis was only made on autopsy. The third patient with a bowel perforation continued to have diarrhea and was intermittently treated with steroids. Upon the diagnosis of a non-catastrophic perforation, the patient declined surgical intervention based on the overall progression of disease. The patient opted for hospice care and ultimately died. The fourth patient developed symptoms of colitis after a single dose of MDX-010, had only intermittent steroid treatment, and ultimately underwent a colectomy for uncontrolled bleeding. Of the 3 patients who received steroid therapy, the initiation of steroid therapy was delayed due to poor patient reporting of symptoms to the investigator, and the therapy was compromised by patient non-compliance with the recommended treatment.\nThe overall incidence of gastrointestinal perforations and/or colectomies is less than 2% of patients.\nSkin toxicity in patients receiving MDX-010 has manifested as rash and pruritis, and, when biopsied, pleomorphic infiltrates have been noted in the skin. Some patients have developed vitiligo associated with MDX-010 administration. In our studies, there have been 7 cases of hypopituitarism reported to date, presumably due to immune-mediated hypophysitis. […] The effect of high-dose corticosteroid therapy on reversing pituitary abnormalities is unknown. Ocular inflammation, specifically Grade 2 or Grade 3 episcleritis or uveitis, has been reported in 6 patients; it has occurred in conjunction with GI symptoms in 4 of these patients. In addition, primary adrenal insufficiency has been noted in 3 patients. […]"}, "patients [3]": {"system": "patients", "test": "Clinical (antitumor) response in patients treated with MDX-010", "assay_type": "in vivo, human", "source_text": "These adverse events, likely reflect a loss of tolerance to some self antigens, or a hyper-response to bacterial antigens present in the gut or skin, and are therefore mechanism-related and may be directly linked to the clinical antitumor activity of MDX-010.\nOf note, most responses observed to date have occurred by Week 12, even in patients with initial progression. As such, all patients who receive at least one dose of MDX-010 (BMS-734016) will, whenever possible, first return for the tumor re-staging assessment at Week 12 (and not before). After patients have been treated in the Induction Phase, they will either enter the Maintenance Phase or the Follow-up Phase, depending upon whether or not they meet eligibility criteria to enter the Maintenance Phase."}},
  "data": [
    {"molecule": "CCCC1O[C@@H]2C[C@H]3[C@@H]4CCC5=CC(=O)C=C[C@]5(C)[C@H]4[C@@H](O)C[C@]3(C)[C@]2(C(=O)CO)O1", "note": "(stereo partly drawn) [Budesonide, budesonide]", "values": [
      {"measurement": "adverse effects versus systemically-acting corticosteroids", "setting": "[1]", "result": "fewer adverse effects"}
    ]},
    {"molecule": "MDX-010: human monoclonal anti-CTLA-4 antibody (Medarex, Inc.), corresponds to monoclonal antibody 10D1; also referred to as ipilimumab", "values": [
      {"measurement": "overall incidence of gastrointestinal perforations and/or colectomies", "setting": "patients [2]; all patients", "result": "less than 2 % of patients"},
      {"measurement": "patients in total who experienced gastrointestinal perforation or bleeding requiring colectomy", "setting": "patients [2]; following treatment with MDX-010, all protocols, to date", "result": 6, "unit": "patients"},
      {"measurement": "ocular inflammation (Grade 2 or Grade 3 episcleritis or uveitis) reported", "setting": "patients [2]; human, in vivo", "result": 6, "unit": "patients"},
      {"measurement": "primary adrenal insufficiency noted", "setting": "patients [2]; human, in vivo", "result": 3, "unit": "patients"},
      {"measurement": "ocular inflammation occurring in conjunction with GI symptoms", "setting": "patients [2]; of the 6 patients with ocular inflammation", "result": 4, "unit": "patients"},
      {"measurement": "gastrointestinal perforations or colectomies in patients with breast or prostate cancer", "setting": "patients [2]; patients with breast or prostate cancer", "result": "no reported gastrointestinal perforations or colectomies"},
      {"measurement": "gastrointestinal perforation or bleeding requiring colectomy, share of all patients with melanoma enrolled", "setting": "patients [2]; patients with melanoma in MDX-010 related protocols", "result": 0.6, "unit": "%"},
      {"measurement": "gastrointestinal perforation or bleeding requiring colectomy, share of all patients with renal cell carcinoma enrolled", "setting": "patients [2]; patients with renal cell carcinoma in MDX-010 related protocols", "result": 7, "unit": "%"},
      {"measurement": "cases of hypopituitarism reported", "setting": "patients [2]; presumably due to immune-mediated hypophysitis, to date", "result": 7, "unit": "cases"},
      {"measurement": "time by which most responses observed to date have occurred", "setting": "patients [3]; even in patients with initial progression", "result": "≤ 12", "unit": "Week"},
      {"measurement": "patients developing an autoimmune-like adverse event who also experienced a clinical response", "setting": "patients [3]; in one of the studies", "result": "~45", "unit": "%"}
    ]}
  ]
}
